# Test results taken from patent US20110287936.
# Columns and labels:
# Test in all cases: SPR
# [1] = target: Wt TetR(B) (Tn10) (Escherichia coli) (UniProt P04483); details: ka 3.3e5 M-1 s-1, kd 3.0e-3 s-1; operator sequence not given for SPR
# [2] = target: L7-1F08-A11 (L7A11, EsR A11) (Artificial Sequence) (UniProt P04483); details: ka 7.1e4 M-1 s-1, kd 1.7e-2 s-1; operator sequence not given for SPR
# [3] = tested on: L7-1C03-A5 (EsR1) (Artificial Sequence); details: ka 4.7e4 M-1 s-1, kd 7.8e-3 s-1; operator sequence not given for SPR
# [4] = tested on: L7-3E03-D1 (EsR D01) (Artificial Sequence); details: ka 5.5e4 M-1 s-1, kd 1.1e-2 s-1; operator sequence not given for SPR
# [5] = tested on: L7-1G06-B2 (Artificial Sequence); details: ka 4.6e4 M-1 s-1, kd 1.9e-2 s-1; operator sequence not given for SPR
substance,measurement,setting,value
tet operator used for SPR,Kd,[1],9 nM
same,Kd,[2],250 nM
same,Kd,[3],150 nM
same,Kd,[4],200 nM
same,Kd,[5],430 nM
